Measured values as given in US7393946, “Method of modulating metabolite biosynthesis in recombinant cells” (Rijksuniversiteit Leiden).

How the values were obtained:
ORCA-1 = ORCA-1 (Catharanthus roseus); assay: cell_activity; within Str1 BH promoter, GUS/CAT, C. roseus cells
ORCA-2 = ORCA-2 (Catharanthus roseus); assay: as above
Chain of ORCA-2 (Catharanthus roseus) (chain, as listed by the source): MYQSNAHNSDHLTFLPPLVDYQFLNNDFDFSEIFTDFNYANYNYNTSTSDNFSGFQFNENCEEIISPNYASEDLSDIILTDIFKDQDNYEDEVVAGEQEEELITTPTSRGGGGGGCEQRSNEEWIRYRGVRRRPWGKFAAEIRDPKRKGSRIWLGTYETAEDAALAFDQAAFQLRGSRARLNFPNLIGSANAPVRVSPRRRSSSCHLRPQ

Chain of ORCA-1 (Catharanthus roseus) (chain, as listed by the source): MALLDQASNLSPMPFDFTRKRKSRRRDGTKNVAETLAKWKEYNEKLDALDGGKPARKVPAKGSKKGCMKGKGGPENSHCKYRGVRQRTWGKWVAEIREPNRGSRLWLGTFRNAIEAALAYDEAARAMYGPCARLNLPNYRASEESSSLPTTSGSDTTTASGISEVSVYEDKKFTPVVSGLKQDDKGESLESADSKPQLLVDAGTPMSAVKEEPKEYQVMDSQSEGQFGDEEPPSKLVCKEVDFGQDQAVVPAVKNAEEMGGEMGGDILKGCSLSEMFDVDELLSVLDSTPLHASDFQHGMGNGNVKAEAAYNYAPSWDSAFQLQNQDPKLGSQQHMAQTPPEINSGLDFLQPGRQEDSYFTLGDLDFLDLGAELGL

B1: RV region of Str1 promoter (dsDNA)
DNA 1: GTACATCACTCTTAGACCGCCTTCTTTGAAAGTGATTTCCCTTGGACC
DNA 2: GGTCCAAGGGAAATCACTTTCAAAGAAGGCGGTCTAAGAGTGATGTAC
Q: For B1, which activity (ORCA-1) is on record?
A: Its activity is 1.6 fold induction.

Q: What about the activity (ORCA-2) of the same binder?
A: Its activity is 3.3 fold induction.
